Measured values: US20030119169A1 (IDUN PHARMACEUTICALS, published 2003)
No end group written: not given here.

Legend:
[1] = target: T1, Mch3α, bacterially expressed recombinant active enzyme (human, UniProt P55210 24-303, limits assumed); assay: inhibition of hydrolysis of 50 µM DEVD-AMC, continuous fluorometric assay, bacterial lysate, 30 min preincubation
T1 construct: Expressed in E. coli as a GST fusion (Mch3α1 or Mch3α2); also called recombinant Mch3α
T1 sequence: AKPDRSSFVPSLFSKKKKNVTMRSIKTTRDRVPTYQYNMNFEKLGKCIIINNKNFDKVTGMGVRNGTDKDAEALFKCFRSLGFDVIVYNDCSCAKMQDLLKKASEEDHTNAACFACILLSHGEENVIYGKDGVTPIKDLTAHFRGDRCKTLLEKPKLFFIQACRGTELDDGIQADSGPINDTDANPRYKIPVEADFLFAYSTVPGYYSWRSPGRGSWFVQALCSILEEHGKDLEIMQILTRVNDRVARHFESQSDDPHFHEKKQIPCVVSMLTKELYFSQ

[2] = target: T2, CPP32, bacterially expressed recombinant active enzyme (human, UniProt P42574 29-277, limits assumed); assay: inhibition of hydrolysis of 10 µM DEVD-AMC, continuous fluorometric assay, bacterial lysate, 30 min preincubation
T2 construct: Bacterially expressed (as a GST fusion, as described for Mch3) and used as bacterial lysate; also called recombinant CPP32
T2 sequence (looked up): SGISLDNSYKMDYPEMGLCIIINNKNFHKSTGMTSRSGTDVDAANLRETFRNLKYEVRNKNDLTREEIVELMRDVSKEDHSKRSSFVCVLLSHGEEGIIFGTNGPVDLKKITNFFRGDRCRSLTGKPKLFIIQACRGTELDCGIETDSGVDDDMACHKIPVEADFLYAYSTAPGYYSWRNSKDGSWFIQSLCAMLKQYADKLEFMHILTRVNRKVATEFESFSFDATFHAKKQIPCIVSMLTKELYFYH

## DEVD-aldehyde (also called DEVD-CHO) [tetrapeptide DEVD aldehyde]
[1]
  Ki: 1.8 nM
[2]
  Ki: 0.59 nM
